Experimental data as given in publication PMC6839005.

Experiments:
Assay in all cases: SPR
[1] = target: Recombinant HIV-1 gp120 SF162 (Clade B) (HIV-1 SF162 (Clade B))
[2] = target: Recombinant HIV-1 gp120 ZM53M.PB12 (HIV-1 ZM53M.PB12 (Clade C))
[3] = target: Human IgG1κ isotype control (human)

Substance: AvFc (lectibody: Avaren fused to the Fc region of human IgG1) (from UniProt Q9KWN0 47-160) (Fc fusion)
- fold increase in affinity compared to AH [1]: 10 fold
- fold increase in affinity compared to AH [2]: 10 fold

Substance: Neonatal Fc receptor (FcRn) (from UniProt P55899 24-365)
- Kd [3]: 18 nM

Substance: Recombinant human Fc gamma receptor IA (FcγRI, CD64) (from UniProt P12314 16-374)
- Kd [3]: 0.11 nM

Substance: Recombinant human Fc gamma receptor IIIA (FcγRIIIa, CD16) (from UniProt P08637 17-254)
- Kd [3]: 680 nM
